Assay results published in patent publication US20200079854A1 (Johns Hopkins, published 2020).

molecular target: p53 wt(245-254) peptide … with HLA-A2 and b2M on peptide-pulsed T2 cells (human); test: flow cytometry, phage-displayed scFv on peptide-pulsed T2 cells (FIG. 4)
Description: (§1) Cells were stained with 10 μL of precipitated phage per 100 μL of cells, washed and stained with rabbit anti-M13 antibody, then washed and stained with anti-Rabbit-PE antibody. Cells were stained with a live/dead Near-IR dye, washed, and analyzed by an LSRII flow cytometer.
(§2) The pulsed cells were pelleted, washed once in cold stain buffer (PBS containing 0.5% BSA, 2 mM EDTA, and 0.1% sodium azide), and resuspended in 100 μL of stain buffer. Phage staining was performed on ice with 10 uL (approximately 1×10⁹) phage for 1 hour in 100 uL total volume, followed by one 4 mL wash in cold stain buffer. Cells were then stained with 1 uL of rabbit anti-M13 antibody (Pierce, Rockford, Ill.) in 100 uL total volume on ice for 1 hour and washed once with 4 mL of cold stain buffer. Cells were stained with anti-rabbit-PE (Biolegend) on ice for 1 hour in 100 uL total volume, followed by incubation with LIVE/DEAD Fixable Near-IR Dead Cell Stain (Thermo Fisher) for 10 min at room temperature per manufacturer's instructions. Cells were washed once in 4 mL of stain buffer followed by resuspension in 300 uL of stain buffer before analysis. Stained cells were analyzed using an LSRII flow cytometer (Becton Dickinson, Mansfield, Mass.).

Row | Binder | binding result
1 | p53_R248Q_A2_c10 (scFv) scFv: DIQMTQSPSSLSASVGDRVTITCRASQDVNTAVAWYQQKPGKAPKLLIYSASFLYSGVPSRFSGSRSGTDFTLTISSLQPEDFATYYCQQSGYAPITFGQGTKVEIKRTGGGSGGGGSGGGASEVQLVESGGGLVQPGGSLRLSCAASGFNISYYSMHWVRQAPGKGLEWVADVDPDSDYTEYADSVKGRFTISADTSKNTAYLQMNSLRAEDTAVYYCSRSWIHMFSMDYWGQGTLVTVSS | no binding

molecular target: KRAS wt(8-16) peptide … with HLA-A11 and b2M on peptide-pulsed MINO cells (human); test: flow cytometry, phage-displayed scFv on peptide-pulsed MINO cells (FIG. 10)
Description: as §1, §2

Row | Binder | binding result
2 | KRAS_G12D_A11_c14 (scFv) scFv: DIQMTQSPSSLSASVGDRVTITCRASQDVNTAVAWYQQKPGKAPKLLIYSASFLYSGVPSRFSGSRSGTDFTLTISSLQPEDFATYYCQQYSFYPFTFGQGTKVEIKRTGGGSGGGGSGGGASEVQLVESGGGLVQPGGSLRLSCAASGFNFGSYIHWVRQAPGKGLEWVAIISGYSGNTYYADSVKGRFTISADTSKNTAYLQMNSLRAEDTAVYYCSRSNQSAYSYMDYWGQGTLVTVSS | no binding
3 | KRAS_G12D_A11_c16 (scFv) scFv: DIQMTQSPSSLSASVGDRVTITCRASQDVNTAVAWYQQKPGKAPKLLIYSASFLYSGVPSRFSGSRSGTDFTLTISSLQPEDFATYYCQQYSYSPITFGQGTKVEIKRTGGGSGGGGSGGGASEVQLVESGGGLVQPGGSLRLSCAASGFNISDSYMHWVRQAPGKGLEWVATFSPYSSNTWYADSVKGRFTISADTSKNTAYLQMNSLRAEDTAVYYCSRSQFTFYQYFDYWGQGTLVTVSS | no binding
4 | KRAS_G12D_A11_c17 (scFv) scFv: DIQMTQSPSSLSASVGDRVTITCRASQDVNTAVAWYQQKPGKAPKLLIYSAYFLYSGVPSRFSGSRSGTDFTLTISSLQPEDFATYYCQQYSAYYQPITFGQGTKVEIKRTGGGSGGGGSGGGASEVQLVESGGGLVQPGGSLRLSCAASGFNIFSDQMHWVRQAPGKGLEWVAGFMPYDSYYTNYADSVKGRFTISADTSKNTAYLQMNSLRAEDTAVYYCSRMSVRNAFDYWGQGTLVTVSS | no binding
5 | KRAS_G12D_A11_c19 (scFv) scFv: DIQMTQSPSSLSASVGDRVTITCRASQDVNTAVAWYQQKPGKAPKLLIYSASFLYSGVPSRFSGSRSGTDFTLTISSLQPEDFATYYCQQYSYYPITFGQGTKVEIKRTGGGSGGGGSGGGASEVQLVESGGGLVQPGGSLRLSCAASGFNLSYSYMHWVRQAPGKGLEWVAVISGFSGNTYYADSVKGRFTISADTSKNTAYLQMNSLRAEDTAVYYCSRSDSYYTAMDYWGQGTLVTVSS | no binding
6 | KRAS_G12D_A11_c110 (scFv) scFv: DIQMTQSPSSLSASVGDRVTITCRASQDVNTAVAWYQQKPGKAPKLLIYSASFLYSGVPSRFSGSRSGTDFTLTISSLQPEDFATYYCQQYEYVPHTFGQGTKVEIKRTGGGSGGGGSGGGASEVQLVESGGGLVQPGGSLRLSCAASGFNISYGYMHWVRQAPGKGLEWVAKFHYGSGNTYYADSVKGRFTISADTSKNTAYLQMNSLRAEDTAVYYCSRSNYYYLDYWGQGTLVTVSS | no binding
7 | KRAS_G12D_A11_c112 (scFv) scFv: DIQMTQSPSSLSASVGDRVTITCRASQDVNTAVAWYQQKPGKAPKLLIYSASFLYSGVPSRFSGSRSGTDFTLTISSLQPEDFATYYCQQYSYMPITFGQGTKVEIKRTGGGSGGGGSGGGASEVQLVESGGGLVQPGGSLRLSCAASGFNISYQHIHWVRQAPGKGLEWVAVFMPYQGSTYYADSVKGRFTISADTSKNTAYLQMNSLRAEDTAVYYCSRANIYSSHSFFDYWGQGTLVTVSS | no binding
8 | KRAS_G12D_A11_c114 (scFv) scFv: DIQMTQSPSSLSASVGDRVTITCRASQDVNTAVAWYQQKPGKAPKLLIYSASFLYSGVPSRFSGSRSGTDFTLTISSLQPEDFATYYCQQYAYYPVTFGQGTKVEIKRTGGGSGGGGSGGGASEVQLVESGGGLVQPGGSLRLSCAASGFNLSGYYMHWVRQAPGKGLEWVAWFSPYSGYTYYADSVKGRFTISADTSKNTAYLQMNSLRAEDTAVYYCSRTHSSIYHSFDYWGQGTLVTVSS | no binding
9 | KRAS_G12D_A11_c115 (scFv) scFv: DIQMTQSPSSLSASVGDRVTITCRASQDVNTAVAWYQQKPGKAPKLLIYSASFLYSGVPSRFSGSRSGTDFTLTISSLQPEDFATYYCQQYSYMPITFGQGTKVEIKRTGGGSGGGGSGGGASEVQLVESGGGLVQPGGSLRLSCAASGFNVSGQYMHWVRQAPGKGLEWVAVISPVSGNTYYADSVKGRFTISADTSKNTAYLQMNSLRAEDTAVYYCSRPMKTSYYGAFDYWGQGTLVTVSS | no binding
10 | KRAS_G12D_A11_c117 (scFv) scFv: DIQMTQSPSSLSASVGDRVTITCRASQDVNTAVAWYQQKPGKAPKLLIYSASFLYSGVPSRFSGSRSGTDFTLTISSLQPEDFATYYCQQYDYRPVTFGQGTKVEIKRTGGGSGGGGSGGGASEVQLVESGGGLVQPGGSLRLSCAASGFNVSTSGMHWVRQAPGKGLEWVAFIYGAYSGTYYADSVKGRFTISADTSKNTAYLQMNSLRAEDTAVYYCSRSQSYTYWSAMDYWGQGTLVTVSS | no binding
11 | KRAS_G12D_A11_c118 (scFv) scFv: DIQMTQSPSSLSASVGDRVTITCRASQDVNTAVAWYQQKPGKAPKLLIYSASFLYSGVPSRFSGSRSGTDFTLTISSLQPEDFATYYCQQYDFTPMTFGQGTKVEIKRTGGGSGGGGSGGGASEVQLVESGGGLVQPGGSLRLSCAASGFNISYAKMHWVRQAPGKGLEWVAYLTYWGGYTNYADSVKGRFTISADTSKNTAYLQMNSLRAEDTAVYYCSRGEYGTYMDYWGQGTLVTVSS | no binding
12 | KRAS_G12D_A11_c119 (scFv) scFv: DIQMTQSPSSLSASVGDRVTITCRASQDVNTAVAWYQQKPGKAPKLLIYSASFLYSGVPSRFSGSRSGTDFTLTISSLQPEDFATYYCQQYSSSSPVTFGQGTKVEIKRTGGGSGGGGSGGGASEVQLVESGGGLVQPGGSLRLSCAASGFNFSSYVMHWVRQAPGKGLEWVAVVYPDSGGTYYADSVKGRFTISADTSKNTAYLQMNSLRAEDTAVYYCSRTSSYYAFDYWGQGTLVTVSS | no binding

molecular target: H/K/N RAS wt(55-64) peptide … with HLA-A1 and b2M on peptide-pulsed SigM5 cells (human); test: flow cytometry, phage-displayed scFv on peptide-pulsed SigM5 cells (FIG. 14)
Description: as §1, §2

Row | Binder | binding result
13 | H/K/N RAS Q61H_A1_c10 (scFv) scFv: DIQMTQSPSSLSASVGDRVTITCRASQDVNTAVAWYQQKPGKAPKLLIYSASFLYSGVPSRFSGSRSGTDFTLTISSLQPEDFATYYCQQGYFYYPNTFGQGTKVEIKRTGGGSGGGGSGGGASEVQLVESGGGLVQPGGSLRLSCAASGFNIGYYGMHWVRQAPGKGLEWVATVYPGGGYTSYADSVKGRFTISADTSKNTAYLQMNSLRAEDTAVYYCSRYYYYGFDYWGQGTLVTVSS | no binding
14 | H/K/N RAS Q61K_A1_c16 (scFv) scFv: DIQMTQSPSSLSASVGDRVTITCRASQDVNTAVAWYQQKPGKAPKLLIYSASFLYSGVPSRFSGSRSGTDFTLTISSLQPEDFATYYCQQHYYSPVTFGQGTKVEIKRTGGGSGGGGSGGGASEVQLVESGGGLVQPGGSLRLSCAASGFNIFYQDMHWVRQAPGKGLEWVAMIYPDYDYTYYADSVKGRFTISADTSKNTAYLQMNSLRAEDTAVYYCSRTYSVYMDYWGQGTLVTVSS | no binding
15 | H/K/N RAS Q61K_A1_c18 (scFv) scFv: DIQMTQSPSSLSASVGDRVTITCRASQDVNTAVAWYQQKPGKAPKLLIYSASFLYSGVPSRFSGSRSGTDFTLTISSLQPEDFATYYCQQYAYAPFTFGQGTKVEIKRTGGGSGGGGSGGGASEVQLVESGGGLVQPGGSLRLSCAASGFNVSYSMIHWVRQAPGKGLEWVARVWGDGGVTYYADSVKGRFTISADTSKNTAYLQMNSLRAEDTAVYYCSRGSYYAFDYWGQGTLVTVSS | no binding
16 | H/R/N RAS Q61R_A1_c116 (scFv) scFv: DIQMTQSPSSLSASVGDRVTITCRASQDVNTAVAWYQQKPGKAPKLLIYSASFLYSGVPSRFSGSRSGTDFTLTISSLQPEDFATYYCQQAHMIPITFGQGTKVEIKRTGGGSGGGGSGGGASEVQLVESGGGLVQPGGSLRLSCAASGFNFSFPGMHWVRQAPGKGLEWVAWFVGYDGYTYYADSVKGRFTISADTSKNTAYLQMNSLRAEDTAVYYCSRDYYSFSMDYWGQGTLVTVSS | no binding
17 | H/R/N RAS Q61R_A1_c117 (scFv) scFv: DIQMTQSPSSLSASVGDRVTITCRASQDVNTAVAWYQQKPGKAPKLLIYSASFLYSGVPSRFSGSRSGTDFTLTISSLQPEDFATYYCQQSVYDPITFGQGTKVEIKRTGGGSGGGGSGGGASEVQLVESGGGLVQPGGSLRLSCAASGFNISGSWIHWVRQAPGKGLEWVAWLYPDSDYTYYADSVKGRFTISADTSKNTAYLQMNSLRAEDTAVYYCSRAHTYAFDYWGQGTLVTVSS | no binding
18 | H/R/N RAS Q61R_A1_c118 (scFv) scFv: DIQMTQSPSSLSASVGDRVTITCRASQDVNTAVAWYQQKPGKAPKLLIYSASFLYSGVPSRFSGSRSGTDFTLTISSLQPEDFATYYCQQSYTSPLTFGQGTKVEIKRTGGGSGGGGSGGGASEVQLVESGGGLVQPGGSLRLSCAASGFNIYYGVMHWVRQAPGKGLEWVAMIYPDSSWTYYADSVKGRFTISADTSKNTAYLQMNSLRAEDTAVYYCSRDQDFHYMNYYLSYALDYWGQGTLVTVSS | no binding
19 | H/R/N RAS Q61R_A1_c119 (scFv) scFv: DIQMTQSPSSLSASVGDRVTITCRASQDVNTAVAWYQQKPGKAPKLLIYSASFLYSGVPSRFSGSRSGTDFTLTISSLQPEDFATYYCQQGQYSPFTFGQGTKVEIKRTGGGSGGGGSGGGASEVQLVESGGGLVQPGGSLRLSCAASGFNVSYEYMHWVRQAPGKGLEWVAEIYGGSDNTYYADSVKGRFTISADTSKNTAYLQMNSLRAEDTAVYYCSRPLGSYFDYWGQGTLVTVSS | no binding
20 | H/R/N RAS Q61R_A1_c122 (scFv) scFv: DIQMTQSPSSLSASVGDRVTITCRASQDVNTAVAWYQQKPGKAPKLLIYSASFLYSGVPSRFSGSRSGTDFTLTISSLQPEDFATYYCQQYWYLPTTFGQGTKVEIKRTGGGSGGGGSGGGASEVQLVESGGGLVQPGGSLRLSCAASGFNISWYDIHWVRQAPGKGLEWVADIEPSVGYTYYADSVKGRFTISADTSKNTAYLQMNSLRAEDTAVYYCSRSYPYYYFDYWGQGTLVTVSS | no binding
